Here are results for one molecule from patent US20170158777A1 (ORUM THERAPEUTICS, published 2017).

This test has as its target T1, integrin ανβ3 on K562 integrin ανβ3-overexpressing cells (UniProt P06756 31-1048; P05106 27-788).
T1 construct: whole, on cells; Heterodimer overexpressed on K562 cells; Parental K562 cells served as the comparison; also called K562 integrin ανβ3 cells
The experiment in a line: FACS on K562 integrin ανβ3-overexpressing cells, 100 nM antibody with 300 IU/ml heparin.

Description: Specifically, each of a K562 cell line and a K562 integrin ανβ3-overexpressing cell line was added to 1.5 ml at a density of 2×10⁵ cells, then washed twice with washing buffer (pH 7.4 PBS, 2% FBS). […] The cells were washed twice with washing buffer, and then stained with an Alexa488 (green fluorescence)-labeled antibody (Invitrogen) that specifically recognizes human IgG, at 4° for 1 hour. Next, the cells were washed twice with washing buffer, and analyzed by FACS.

B1: RGD10 peptide-fused anti-Ras•GTP iMab RT11 (antibody, V domains shown)
VH: EVQLVESGGGLVQPGGSLRLSCAASGFTFSSYSMSWVRQAPGKGLEWVSYISRTSHTTYYADSVKGRFTISRDNSKNTLYLQMNSLRAEDTAVYYCARGFFMDYWGQGTLVTVSS
VL: DLVMTQSPSSLSASVGDRVTITCKSSQSLFNSRTRKNYLAWYQQKPGKAPKLLIYWASTRESGVPSRFSGSGSGTDFTLTISSLQPEDFATYYCQQYYYHMYTFGQGTKVEIKR
notes: also called RGD10-RT11; RGD10 peptide-fused RT11
As to B1, the binding result was “binds”.
